Data from PMC4961446, “Dual Role of a Biosynthetic Enzyme, CysK, in Contact Dependent Growth Inhibition in Bacteria” (PLoS ONE, 2016).
Where “and” joins values, the source holds several entries; their conditions need not be identical. Equal values may be shown once.

Assays:
[1] = target: CdiA-CT^536(H3193A) (Escherichia coli strain 536 (UPEC536)); assay: AUC; sedimentation velocity, 40,000 rpm, 15°C, 20 mM HEPES pH 7.5, 250 mM NaCl; 10, 20 and 30 μM; c(s) model in SEDFIT; complexes mixed and incubated at 4°C for 1 h
[2] = target: CdiA-CT^536(H3193A) (Escherichia coli strain 536 (UPEC536)); assay: SPR; Biacore 3000, 30°C; CdiA-CT^(M) immobilized on CM5 chip (723 RU); 10 mM HEPES pH 7.5, 150 mM NaCl, 20 μl/min; analyte CdiI 5-40 nM (1:1 Langmuir model) or CysK 0.4-6.4 μM dimer
[3] = target: CdiA-CT^(M)/CysK complex (heterotetramer) (Escherichia coli strain 536 (UPEC536) | E. coli K12) (UniProt P0ABK5); assay: SPR; Biacore 3000, 30°C; CdiA-CT^(M) immobilized on a separate CM5 chip (760 RU), first 0.6 μM CysK (dimer) passed over it to form the CdiA-CT^(M)/CysK complex, then CdiI injected at 2.5-40 nM; local fitting, separate ka/kd model
[4] = target: CdiA-CT^(M)/CysK complex (heterotetramer) (Escherichia coli strain 536 (UPEC536) | E. coli K12) (UniProt P0ABK5); assay: ITC; 30°C, 20 mM HEPES pH 7.5, 150 mM NaCl; CdiA-CT^(M) or its preformed complex in the sample cell, CdiI or CysK (dimer concentration) in the syringe; one-site model for CdiA-CT^(M)/CdiI, two binding site model where CysK is involved; apparent enthalpy
[5] = target: CdiA-CT^536(H3193A) (Escherichia coli strain 536 (UPEC536)); assay: as above
RelE (Escherichia coli) = RelE (Escherichia coli) (UniProt P0C077); details: cited from earlier work
Chain of RelE (Escherichia coli) (P0C077 whole entry): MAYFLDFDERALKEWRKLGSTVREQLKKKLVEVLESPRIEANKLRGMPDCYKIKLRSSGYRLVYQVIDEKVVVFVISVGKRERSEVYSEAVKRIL

[6] = target: SpoIISB (Bacillus subtilis) (UniProt O34800); details: cited from earlier work
Chain of SpoIISB (Bacillus subtilis) (O34800 whole entry): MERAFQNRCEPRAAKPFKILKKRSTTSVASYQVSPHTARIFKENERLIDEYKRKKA

CysK = target: T1, CysK (Escherichia coli, UniProt P0ABK5); assay: ITC
T1 chain: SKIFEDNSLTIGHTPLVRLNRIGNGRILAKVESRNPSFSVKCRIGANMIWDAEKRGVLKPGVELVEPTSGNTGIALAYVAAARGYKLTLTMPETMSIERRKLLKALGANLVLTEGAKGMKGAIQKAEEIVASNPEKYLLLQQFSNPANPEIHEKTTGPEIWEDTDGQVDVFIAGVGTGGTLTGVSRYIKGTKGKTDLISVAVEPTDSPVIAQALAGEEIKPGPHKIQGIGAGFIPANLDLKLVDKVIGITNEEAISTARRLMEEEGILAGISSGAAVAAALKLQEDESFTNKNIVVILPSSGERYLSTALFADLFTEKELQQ

[7] = target: CdiA-CT^(M)/CdiI complex (heterodimer) (Escherichia coli strain 536 (UPEC536)); assay: AUC; sedimentation velocity, 40,000 rpm, 15°C, 20 mM HEPES pH 7.5, 250 mM NaCl; 10, 20 and 30 μM; c(s) model in SEDFIT; complexes mixed and incubated at 4°C for 1 h; details: scale: CysK chain per CdiA-CT^(M)/CdiI heterodimer
Chain of CdiA-CT^(M)/CdiI complex (heterodimer) (Escherichia coli strain 536 (UPEC536)) (Q0T964 whole entry, one chain of several): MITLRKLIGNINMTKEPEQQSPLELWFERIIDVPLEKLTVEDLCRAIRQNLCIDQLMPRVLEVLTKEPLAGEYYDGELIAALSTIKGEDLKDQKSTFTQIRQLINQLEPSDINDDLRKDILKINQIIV

[8] = target: the molecule itself; assay: as above
[9] = target: the molecule itself; assay: SEC; analytical SEC, Superdex 200 Increase 10/300 GL, 20 mM HEPES pH 7.5, 250 mM NaCl, ~15°C; samples 10, 20 and 30 μM; for complexes purified proteins mixed in varying molar ratios and incubated at 4°C for 1 h; fractions analysed by SDS-PAGE
[10] = target: CdiA-CT^(M)/CdiI complex (heterodimer) (Escherichia coli strain 536 (UPEC536)); assay: ITC; 30°C, 20 mM HEPES pH 7.5, 150 mM NaCl; CdiA-CT^(M) or its preformed complex in the sample cell, CdiI or CysK (dimer concentration) in the syringe; one-site model for CdiA-CT^(M)/CdiI, two binding site model where CysK is involved; apparent enthalpy

**Q.** For CdiI (natural protein), which stoichiometry N (CdiI per CdiA-CT^(M) (1:1)) [1] is on record?
**A.** Its stoichiometry N (CdiI per CdiA-CT^(M) (1:1)) is 1.

**Q.** What about the Kd [2] of the same molecule?
**A.** Its Kd is 12.8 nM.

**Q.** And the koff [2]?
**A.** The koff was 0.065 s⁻¹.

**Q.** And the kon [2]?
**A.** The kon was 5.1e+06 M⁻¹ s⁻¹.

**Q.** And the Kd [3]?
**A.** Its Kd is 0.3 nM.

**Q.** What about the koff [3] of the same molecule?
**A.** Its koff is 0.0005 s⁻¹.

**Q.** And the kon [3]?
**A.** The kon was 1.5e+06 M⁻¹ s⁻¹.

**Q.** And the KD1, first site [4]?
**A.** The KD1, first site was 1.3 nM.

**Q.** What about the KD2, second site [4] of the same molecule?
**A.** The KD2, second site was 1.1 nM.

**Q.** What about the dH, first site [4] of the same molecule?
**A.** The dH, first site was -26.7 kcal/mol.

**Q.** What about the dH, second site [4] of the same molecule?
**A.** The dH, second site was -24.2 kcal/mol.

**Q.** And the stoichiometry N [4]?
**A.** The stoichiometry N was 1.89.

**Q.** What about the Kd [5] of the same molecule?
**A.** Its Kd is 26.4 nM.

**Q.** And the dH [5]?
**A.** The dH was -29 kcal/mol.

**Q.** What about the stoichiometry N [5] of the same molecule?
**A.** Its stoichiometry N is 0.993.

**Q.** With RelB (from UniProt P0C079) as the molecule, how does the Kd (RelE (Escherichia coli)) read?
**A.** The Kd was 0.33 nM.

**Q.** For SpoIISA (from UniProt O34853), which Kd [6] is on record?
**A.** Its Kd is 0.46 nM.

B1: CdiA-CT CT (protein)
chain: VENNALSLVARGCAVAAPCRTKVAEQLLEIGAKAGMAGLAGAAVKDMADRMTSDELEHLITLQMMGNDEITTKYLSSLHDKYGSGAASNPNIGKDLTDAEKVELGGSGSGTGTPPPSENDPKQQNEKTVDKLNQKQESAIKKIDNTIKNALKDHDIIGTLKDMDGKPVPKENGGYWDHMQEMQNTLRGLRNHADTLKNVNNPEAQAAYGRATDAINKIESALKGYGI
**Q.** Which Kd (CysK) does the source give for B1 here?
**A.** The Kd was 79.3 nM and 89.2 nM.

B2: CysK (O-acetylserine sulfyhydrylase) (enzyme, E. coli K12, UniProt P0ABK5 1-323, looked up)
chain: MSKIFEDNSLTIGHTPLVRLNRIGNGRILAKVESRNPSFSVKCRIGANMIWDAEKRGVLKPGVELVEPTSGNTGIALAYVAAARGYKLTLTMPETMSIERRKLLKALGANLVLTEGAKGMKGAIQKAEEIVASNPEKYLLLQQFSNPANPEIHEKTTGPEIWEDTDGQVDVFIAGVGTGGTLTGVSRYIKGTKGKTDLISVAVEPTDSPVIAQALAGEEIKPGPHKIQGIGAGFIPANLDLKLVDKVIGITNEEAISTARRLMEEEGILAGISSGAAVAAALKLQEDESFTNKNIVVILPSSGERYLSTALFADLFTEKELQQ
notes: CysK (O-acetylserine sulfhydrylase), amplified from E. coli K12 genomic DNA, in pNIC28-Bsa4; Cloned between NcoI/XhoI of pNIC28-Bsa4; also called CysK dimer; source: E. coli BL21(DE3), purified (Co-NTA, gel filtration)
**Q.** With B2 as the molecule, how does the stoichiometry N [7] read?
**A.** The stoichiometry N was 1.

**Q.** What about the stoichiometry N (CysK chain per CdiA-CT^(M) chain (2:2)) [1] of the same molecule?
**A.** Its stoichiometry N (CysK chain per CdiA-CT^(M) chain (2:2)) is 1.

**Q.** And the “stoichiometry N” value [8]?
**A.** Its value is 2.

**Q.** What about the Kd [2] of the same molecule?
**A.** Its Kd is 32 nM.

**Q.** What about the koff [2] of the same molecule?
**A.** The koff was 0.00014 s⁻¹.

**Q.** And the kon [2]?
**A.** Its kon is 6200 M⁻¹ s⁻¹.

**Q.** What about the “stoichiometry N” value [9] of the same molecule?
**A.** The value was 2.

**Q.** And the KD1, first site [10]?
**A.** Its KD1, first site is 12 nM.

**Q.** And the KD2, second site [10]?
**A.** The KD2, second site was 13.4 nM.

**Q.** And the dH, first site [10]?
**A.** Its dH, first site is -11 kcal/mol.

**Q.** And the dH, second site [10]?
**A.** The dH, second site was -26.7 kcal/mol.

**Q.** What about the stoichiometry N [10] of the same molecule?
**A.** Its stoichiometry N is 0.512.

**Q.** And the KD1, first site [5]?
**A.** The KD1, first site was 79.3 nM.

**Q.** What about the KD2, second site [5] of the same molecule?
**A.** The KD2, second site was 89.2 nM.

**Q.** What about the dH, first site [5] of the same molecule?
**A.** Its dH, first site is -5.62 kcal/mol.

**Q.** What about the dH, second site [5] of the same molecule?
**A.** Its dH, second site is -20.2 kcal/mol.

**Q.** And the stoichiometry N [5]?
**A.** Its stoichiometry N is 0.494.
